Laboratory results reported in PMC5467213, “Architecture of the RNA polymerase II-Paf1C-TFIIS transcription elongation complex” (Nature Communications, 2017).

B1: Cdc73 (natural protein, S. cerevisiae, UniProt Q06697 1-393, looked up)
chain: MANSLDRLREHLKNGDKLVLKNNEGQSTDDITKATMVETLSSDGSTQDSFPLNEETEIEIDGSLVQLRIIVHCWMNKDSSAADYLADCQNKQLTNVSFLQRTDLINWLSGNTESSQYLKAPGQKGETSDKVDIENKTLAGELSTVKSTTSASLENDSEVSDPVVVETMKHERILVDHNSALRGAKPINFGYLIKDAELKLVQSIKGSLRGSKLPPGHKGAHGRISKTNGSSGGPRKDPIILIPSAASSILTVANIKQFLLESKYVNPRNLPSVPNGLVNIEKNFERISRPIRFIIVDNTRMFTKPEYWDRVVAIFTTGHTWQFNNYQWNSPQELFQRCKGYYFHFAGDSVPQHVQQWNVEKVELDKNKRFKDVEVVRYFWHSLEKELISRGYR
notes: Cdc73, S. cerevisiae, full length, amplified from genomic DNA; source: E. coli BL21 CodonPlus(DE3)RIL, coexpressed with the other subunits; in lysate and purified as part of Paf1C
B2: Leo1 (natural protein, S. cerevisiae, UniProt P38439 1-464, looked up)
chain: MSSESPQDQPQKEQISNNVGVTTNSTSNEETSRSQDDNVKEVNGNDDTKEEEQEEDAELDDLFGDDNDDDDDDDVKKSETEKSDSDSDEDDEGENINHRSRHRESLGLDDDEAEEQAMYTRKFYGEDANNFSDQDETTHTFKEENVELVRHIIPSKANVNETASHNEIFYARIPNFLTIDPIPFDPPSFEAKVNERASNSASREDQLDDRLIDENTVRWRYSRDKDQHVFKESNTQIVQWSDGTYSLKVGEECTDILVNDTSNTFLTVSHDQQELIQCYEGGEIKKTLMFIPTSTNSKIHQKLSKAVIRRNQRQSKGPGTYIVSMDPEVEKKELERKQSQILRDRRRRQLKEKEKQESPDAAFETGFRKQNSPTTYGASRRNEYEEDDFLVDDDEEEEAAFDDEEDDNEEEEEEEDADEENASRLRNLKREGAAMYREEEEEEKDRSETKRRRVAVIEDDEDED
notes: Leo1, S. cerevisiae, open reading frame chemically synthesized (codon-optimised), in pCDFDuet-1; source: E. coli BL21 CodonPlus(DE3)RIL, coexpressed with the other subunits; in lysate and purified as part of Paf1C
B3: Rpb11 (Pol II subunit) (natural protein, yeast)
chain: MNAPDRFELFLLGEGESKLKIDPDTKAPNAVVITFEKEDHTLGNLIRAELLNDRKVLFAAYKVEHPFFARFKLRIQTTEGYDPKDALKNACNSIINKLGALKTNFETEWNLQTLAADDAF
notes: Rpb11, subunit of yeast Pol II; source: part of purified Pol II
B4: Rpb3 (Pol II subunit) (natural protein, yeast)
chain: MSEEGPQVKIREASKDNVDFILSNVDLAMANSLRRVMIAEIPTLAIDSVEVETNTTVLADEFIAHRLGLIPLQSMDIEQLEYSRDCFCEDHCDKCSVVLTLQAFGESESTTNVYSKDLVIVSNLMGRNIGHPIIQDKEGNGVLICKLRKGQELKLTCVAKKGIAKEHAKWGPAAAIEFEYDPWNKLKHTDYWYEQDSAKEWPQSKNCEYEDPPNEGDPFDYKAQADTFYMNVESVGSIPVDQVVVRGIDTLQKKVASILLALTQMDQDKVNFASGDNNTASNMLGSNEDVMMTGAEQDPYSNASQMGNTGSGGYDNAW
notes: Rpb3, subunit of yeast Pol II; source: part of purified Pol II

Key:
[1] = target: T1, Ctr9 (full length, C-terminal hexahistidine tag) (S. cerevisiae, UniProt P89105 1-1077); experiment: co-purification after coexpression (Ni-NTA, cation exchange, SEC); subunits coexpressed in E. coli from three vectors, cells colysed; Ni-NTA (hexahistidine tag on Ctr9), HiTrap SP cation exchange, Superose 6 size exclusion; SDS-PAGE, subunits confirmed by mass spectrometry; conditions: partners not purified
T1 construct: Ctr9, S. cerevisiae, full length, amplified from genomic DNA, in pET24b; source: E. coli BL21 CodonPlus(DE3)RIL, coexpressed with the other subunits; in lysate and purified as part of Paf1C; not shown: His6, C-terminal, kept
T1 sequence (looked up): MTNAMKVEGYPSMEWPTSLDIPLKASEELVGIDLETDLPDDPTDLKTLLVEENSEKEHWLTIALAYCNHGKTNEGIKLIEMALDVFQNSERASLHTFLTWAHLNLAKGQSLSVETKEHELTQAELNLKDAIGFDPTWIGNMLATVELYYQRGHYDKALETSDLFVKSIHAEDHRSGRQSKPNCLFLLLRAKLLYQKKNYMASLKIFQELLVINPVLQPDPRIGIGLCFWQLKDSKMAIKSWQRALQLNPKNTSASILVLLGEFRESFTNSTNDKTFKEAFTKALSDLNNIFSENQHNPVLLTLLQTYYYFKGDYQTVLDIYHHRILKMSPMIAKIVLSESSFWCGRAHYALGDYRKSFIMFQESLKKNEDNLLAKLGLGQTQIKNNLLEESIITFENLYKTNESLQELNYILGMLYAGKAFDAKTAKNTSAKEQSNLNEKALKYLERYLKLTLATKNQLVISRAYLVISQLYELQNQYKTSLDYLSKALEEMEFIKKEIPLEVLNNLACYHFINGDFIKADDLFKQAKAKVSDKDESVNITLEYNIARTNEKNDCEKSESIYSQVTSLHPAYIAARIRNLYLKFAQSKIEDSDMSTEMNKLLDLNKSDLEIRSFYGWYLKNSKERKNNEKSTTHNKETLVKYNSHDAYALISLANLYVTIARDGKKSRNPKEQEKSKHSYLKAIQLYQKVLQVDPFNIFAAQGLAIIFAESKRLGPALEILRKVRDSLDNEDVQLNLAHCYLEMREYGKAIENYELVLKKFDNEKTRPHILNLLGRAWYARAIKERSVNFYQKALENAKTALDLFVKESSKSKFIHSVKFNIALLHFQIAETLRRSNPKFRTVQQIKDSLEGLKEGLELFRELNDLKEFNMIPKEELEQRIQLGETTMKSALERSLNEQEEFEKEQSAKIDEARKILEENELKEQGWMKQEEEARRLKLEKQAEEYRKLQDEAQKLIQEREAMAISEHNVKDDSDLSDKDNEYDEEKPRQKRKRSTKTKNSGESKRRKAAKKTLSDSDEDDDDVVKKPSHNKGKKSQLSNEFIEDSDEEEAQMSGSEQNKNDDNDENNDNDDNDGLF

[2] = target: T2, Ctr9-ΔC913 (S. cerevisiae, UniProt P89105 1-913); experiment: cross-linking; Pol II-Paf1C-TFIIS EC after SEC, 425 μg/ml, 0.5 mM BS3, 30 min, 30 °C; trypsin, Orbitrap Fusion LC-MS/MS, pLink, FDR 1%; conditions: both partners purified
T2 construct: Ctr9, S. cerevisiae, variant lacking 164 amino acids at its C terminus (Ctr9-ΔC913); also called Ctr9 (in the Pol II-Paf1C-TFIIS EC); source: E. coli BL21 CodonPlus(DE3)RIL, coexpressed with the other subunits; in lysate and purified as part of Paf1C-Ctr9-ΔC913
T2 sequence (looked up): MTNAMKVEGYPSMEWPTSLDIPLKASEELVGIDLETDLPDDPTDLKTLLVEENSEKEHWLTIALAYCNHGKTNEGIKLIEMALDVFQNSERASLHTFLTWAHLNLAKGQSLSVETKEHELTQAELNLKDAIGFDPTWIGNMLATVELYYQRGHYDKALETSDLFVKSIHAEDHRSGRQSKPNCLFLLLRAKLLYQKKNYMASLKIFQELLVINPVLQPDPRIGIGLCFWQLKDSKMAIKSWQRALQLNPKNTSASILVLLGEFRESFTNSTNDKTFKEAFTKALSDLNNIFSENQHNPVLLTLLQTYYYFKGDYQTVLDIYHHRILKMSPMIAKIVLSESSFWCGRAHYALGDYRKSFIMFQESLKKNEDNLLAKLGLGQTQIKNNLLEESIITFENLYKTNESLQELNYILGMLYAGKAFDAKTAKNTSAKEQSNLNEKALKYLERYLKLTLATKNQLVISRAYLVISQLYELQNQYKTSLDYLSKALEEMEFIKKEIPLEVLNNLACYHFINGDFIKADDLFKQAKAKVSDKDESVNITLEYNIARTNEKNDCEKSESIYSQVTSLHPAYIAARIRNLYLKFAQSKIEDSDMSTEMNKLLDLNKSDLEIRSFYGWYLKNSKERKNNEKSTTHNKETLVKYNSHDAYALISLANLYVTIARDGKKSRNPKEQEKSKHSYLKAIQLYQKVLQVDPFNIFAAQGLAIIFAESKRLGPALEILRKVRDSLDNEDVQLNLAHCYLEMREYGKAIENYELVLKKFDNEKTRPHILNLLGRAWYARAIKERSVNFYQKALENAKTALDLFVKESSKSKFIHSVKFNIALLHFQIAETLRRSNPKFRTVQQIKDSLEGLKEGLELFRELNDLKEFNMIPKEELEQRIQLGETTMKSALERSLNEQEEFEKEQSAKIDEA

[3] = target: T3, Rpb2 (Pol II subunit) (yeast, UniProt P08518 1-1224); experiment: as above; conditions: both partners purified
T3 construct: Rpb2, subunit of yeast Pol II; source: part of purified Pol II
T3 sequence (P08518 whole entry): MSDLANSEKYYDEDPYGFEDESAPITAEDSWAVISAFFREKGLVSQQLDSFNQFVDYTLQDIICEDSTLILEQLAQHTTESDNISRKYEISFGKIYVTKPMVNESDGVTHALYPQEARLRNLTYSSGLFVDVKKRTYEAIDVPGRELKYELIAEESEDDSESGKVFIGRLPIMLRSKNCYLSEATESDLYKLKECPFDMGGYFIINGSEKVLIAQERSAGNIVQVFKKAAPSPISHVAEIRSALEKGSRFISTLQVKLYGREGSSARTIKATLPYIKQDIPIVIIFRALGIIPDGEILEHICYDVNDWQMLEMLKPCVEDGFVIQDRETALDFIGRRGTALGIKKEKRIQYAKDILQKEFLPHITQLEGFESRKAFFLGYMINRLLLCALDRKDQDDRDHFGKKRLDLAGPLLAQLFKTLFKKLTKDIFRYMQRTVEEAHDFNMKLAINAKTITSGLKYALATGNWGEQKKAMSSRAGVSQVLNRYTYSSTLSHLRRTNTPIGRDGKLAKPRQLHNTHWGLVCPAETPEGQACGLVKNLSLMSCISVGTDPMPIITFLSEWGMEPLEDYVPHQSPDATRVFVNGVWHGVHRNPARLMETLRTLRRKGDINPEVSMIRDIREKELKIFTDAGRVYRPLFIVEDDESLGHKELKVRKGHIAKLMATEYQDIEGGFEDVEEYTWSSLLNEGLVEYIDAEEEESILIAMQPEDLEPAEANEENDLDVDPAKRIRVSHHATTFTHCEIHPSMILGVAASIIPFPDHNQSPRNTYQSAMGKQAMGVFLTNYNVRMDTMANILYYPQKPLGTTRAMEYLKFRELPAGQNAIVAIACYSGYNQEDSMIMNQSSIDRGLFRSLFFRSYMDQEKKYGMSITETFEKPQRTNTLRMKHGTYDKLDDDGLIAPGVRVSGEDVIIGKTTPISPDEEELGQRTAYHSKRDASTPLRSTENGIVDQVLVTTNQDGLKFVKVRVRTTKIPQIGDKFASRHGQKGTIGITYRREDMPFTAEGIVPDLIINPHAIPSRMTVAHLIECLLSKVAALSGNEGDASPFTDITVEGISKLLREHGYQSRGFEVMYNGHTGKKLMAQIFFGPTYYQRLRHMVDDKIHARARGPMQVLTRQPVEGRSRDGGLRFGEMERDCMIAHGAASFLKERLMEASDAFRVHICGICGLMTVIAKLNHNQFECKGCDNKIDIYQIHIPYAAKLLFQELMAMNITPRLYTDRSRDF

[4] = target: T4, Rtf1 (S. cerevisiae, UniProt P53064 1-558); experiment: as above; conditions: both partners purified
T4 construct: Rtf1, S. cerevisiae, full length, amplified from genomic DNA; source: E. coli BL21 CodonPlus(DE3)RIL, coexpressed with Cdc73; in lysate and purified as part of Paf1C
T4 sequence (P53064 whole entry): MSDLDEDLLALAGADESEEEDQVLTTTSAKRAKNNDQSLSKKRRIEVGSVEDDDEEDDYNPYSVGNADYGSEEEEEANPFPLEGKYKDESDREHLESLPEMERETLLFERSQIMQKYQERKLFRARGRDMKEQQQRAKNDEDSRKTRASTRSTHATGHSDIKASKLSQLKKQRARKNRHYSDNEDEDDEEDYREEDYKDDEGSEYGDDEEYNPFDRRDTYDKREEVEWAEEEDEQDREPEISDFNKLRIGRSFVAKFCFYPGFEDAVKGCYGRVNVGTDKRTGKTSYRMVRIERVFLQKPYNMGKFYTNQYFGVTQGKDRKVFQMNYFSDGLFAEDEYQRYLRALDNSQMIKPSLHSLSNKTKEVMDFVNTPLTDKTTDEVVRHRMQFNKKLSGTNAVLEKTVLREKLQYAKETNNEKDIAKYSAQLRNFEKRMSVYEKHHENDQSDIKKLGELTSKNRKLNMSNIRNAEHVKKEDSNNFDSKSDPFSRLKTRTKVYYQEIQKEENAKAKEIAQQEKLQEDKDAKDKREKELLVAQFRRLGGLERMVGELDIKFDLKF

[5] = target: T5, Rpb1 (Pol II subunit) (yeast, UniProt P04050 1-1733); experiment: as above; conditions: both partners purified
T5 construct: Rpb1, largest subunit of yeast Pol II; source: part of purified Pol II
T5 sequence (P04050 whole entry): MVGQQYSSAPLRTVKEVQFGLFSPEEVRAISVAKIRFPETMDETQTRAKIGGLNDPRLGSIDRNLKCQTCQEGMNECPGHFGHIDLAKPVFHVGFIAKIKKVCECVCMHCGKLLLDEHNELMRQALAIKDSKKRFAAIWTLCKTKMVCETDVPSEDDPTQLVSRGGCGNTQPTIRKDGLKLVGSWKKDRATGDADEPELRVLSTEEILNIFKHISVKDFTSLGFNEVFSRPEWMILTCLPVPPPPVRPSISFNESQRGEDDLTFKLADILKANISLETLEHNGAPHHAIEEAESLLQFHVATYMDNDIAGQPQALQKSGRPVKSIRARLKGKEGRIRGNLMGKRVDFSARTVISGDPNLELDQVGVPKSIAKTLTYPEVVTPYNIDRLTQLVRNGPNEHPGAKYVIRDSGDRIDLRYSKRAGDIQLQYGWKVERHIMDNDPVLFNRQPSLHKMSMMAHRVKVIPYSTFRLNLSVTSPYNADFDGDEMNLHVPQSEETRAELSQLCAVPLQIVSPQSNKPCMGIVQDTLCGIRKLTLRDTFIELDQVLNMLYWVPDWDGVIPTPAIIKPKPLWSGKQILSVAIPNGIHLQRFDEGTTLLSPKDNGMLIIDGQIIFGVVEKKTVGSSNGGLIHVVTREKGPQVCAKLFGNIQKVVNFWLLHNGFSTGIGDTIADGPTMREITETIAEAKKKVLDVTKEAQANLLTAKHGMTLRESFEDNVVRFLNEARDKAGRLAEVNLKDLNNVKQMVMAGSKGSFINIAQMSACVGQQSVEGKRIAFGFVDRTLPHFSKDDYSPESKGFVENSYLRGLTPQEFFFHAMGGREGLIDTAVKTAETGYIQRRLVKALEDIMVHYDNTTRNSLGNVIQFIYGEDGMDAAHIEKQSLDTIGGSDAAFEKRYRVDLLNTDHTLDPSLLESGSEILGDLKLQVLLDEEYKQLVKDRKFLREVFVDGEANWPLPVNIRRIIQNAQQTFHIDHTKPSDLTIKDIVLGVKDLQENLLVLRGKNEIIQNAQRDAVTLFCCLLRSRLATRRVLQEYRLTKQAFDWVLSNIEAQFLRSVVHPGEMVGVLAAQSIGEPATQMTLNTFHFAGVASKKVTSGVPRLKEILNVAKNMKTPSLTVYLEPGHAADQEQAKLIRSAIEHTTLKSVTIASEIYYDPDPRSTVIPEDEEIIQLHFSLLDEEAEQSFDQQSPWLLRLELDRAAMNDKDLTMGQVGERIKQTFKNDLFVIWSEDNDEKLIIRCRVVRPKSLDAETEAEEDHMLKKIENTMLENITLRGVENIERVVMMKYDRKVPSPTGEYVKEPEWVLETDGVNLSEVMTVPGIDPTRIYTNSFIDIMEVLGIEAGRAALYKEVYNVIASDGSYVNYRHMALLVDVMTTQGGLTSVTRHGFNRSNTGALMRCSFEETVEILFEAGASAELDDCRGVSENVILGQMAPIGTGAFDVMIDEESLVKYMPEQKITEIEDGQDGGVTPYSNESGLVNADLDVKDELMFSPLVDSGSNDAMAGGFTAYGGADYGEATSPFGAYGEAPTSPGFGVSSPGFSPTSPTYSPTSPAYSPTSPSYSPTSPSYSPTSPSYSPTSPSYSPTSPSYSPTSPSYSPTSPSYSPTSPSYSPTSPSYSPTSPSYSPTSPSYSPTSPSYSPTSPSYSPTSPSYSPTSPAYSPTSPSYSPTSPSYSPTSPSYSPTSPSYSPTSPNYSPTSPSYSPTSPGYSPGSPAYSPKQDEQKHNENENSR

[6] = target: B1; experiment: as above; conditions: both partners purified

B1: binds [1]; binds [2]; binds [3].

B2: binds [1]; binds [2]; binds [4]. B2: binds [3]; binds [5].

B3: binds [6].

B4: binds [6].
